Reference: US10941182 (Amgen, dated 2021)
Starred links: 1 amine or outer side, 2 acyl side, 3 side chain; linkers in the order of their positions; H or OH if unused. Non-standard residues stand in square brackets, D forms with d. *: point of attachment. AC4Abu = α-carboxy-4-aminobutyric acid, O=C(C(CCN[*:1])C(=O)[*:3])[*:2]; Oic = O=C(O)[C@@H]1C[C@@H]2CCCC[C@@H]2N1; Phe(4-Cl) = N[C@@H](Cc1ccc(Cl)cc1)C(=O)O; γGlu = O=C(O)[C@H](CCC(=O)[*:2])N[*:1]; NMeR = CN[C@@H](CCCNC(=N)N)C(=O)O; Tridecanoyl = CCCCCCCCCCCCC(=O)*; hArg = N=C(N)NCCCC[C@H](N)C(=O)O; Cha = N[C@@H](CC1CCCCC1)C(=O)O; αMeL = CC(C)C[C@](C)(N)C(=O)O; Tle = CC(C)(C)[C@H](N)C(=O)O; Nle = CCCC[C@H](N)C(=O)O; AEEA = NCCOCCOCC(=O)O; Aib = CC(C)(N)C(=O)O

B1: Apelin polypeptide SEQ ID NO: 525 (peptide)
peptide: Tridecanoyl-[γGlu][AEEA][AEEA][dQ][dE]P[NMeR][Cha]SHKG[Oic][Nle][Aib][Phe(4-Cl)]-OH
SMILES: CCCCCCCCCCCCC(=O)N[C@@H](CCC(=O)NCCOCCOCC(=O)NCCOCCOCC(=O)N[C@H](CCC(N)=O)C(=O)N[C@H](CCC(=O)O)C(=O)N1CCC[C@H]1C(=O)N(C)[C@@H](CCCNC(=N)N)C(=O)N[C@@H](CC1CCCCC1)C(=O)N[C@@H](CO)C(=O)N[C@@H](Cc1c[nH]cn1)C(=O)N[C@@H](CCCCN)C(=O)NCC(=O)N1[C@H](C(=O)N[C@@H](CCCC)C(=O)NC(C)(C)C(=O)N[C@@H](Cc2ccc(Cl)cc2)C(=O)O)C[C@@H]2CCCC[C@@H]21)C(=O)O
B2: Apelin polypeptide SEQ ID NO: 524 (peptide)
peptide: Tridecanoyl-[γGlu][AEEA][AEEA][dQ]EP[NMeR][Cha]SHKG[Oic][Nle][Aib][Phe(4-Cl)]-OH
SMILES: CCCCCCCCCCCCC(=O)N[C@@H](CCC(=O)NCCOCCOCC(=O)NCCOCCOCC(=O)N[C@H](CCC(N)=O)C(=O)N[C@@H](CCC(=O)O)C(=O)N1CCC[C@H]1C(=O)N(C)[C@@H](CCCNC(=N)N)C(=O)N[C@@H](CC1CCCCC1)C(=O)N[C@@H](CO)C(=O)N[C@@H](Cc1c[nH]cn1)C(=O)N[C@@H](CCCCN)C(=O)NCC(=O)N1[C@H](C(=O)N[C@@H](CCCC)C(=O)NC(C)(C)C(=O)N[C@@H](Cc2ccc(Cl)cc2)C(=O)O)C[C@@H]2CCCC[C@@H]21)C(=O)O
B3: Apelin polypeptide SEQ ID NO: 397 (peptide)
peptide: Tridecanoyl-[AC4Abu][AEEA][AEEA]Q[NMeR][αMeL]SHKG[Oic][Nle]P[Phe(4-Cl)]-OH
SMILES: CCCCCCCCCCCCC(=O)NCCC(C(=O)O)C(=O)NCCOCCOCC(=O)NCCOCCOCC(=O)N[C@@H](CCC(N)=O)C(=O)N(C)[C@@H](CCCNC(=N)N)C(=O)N[C@@](C)(CC(C)C)C(=O)N[C@@H](CO)C(=O)N[C@@H](Cc1c[nH]cn1)C(=O)N[C@@H](CCCCN)C(=O)NCC(=O)N1[C@H](C(=O)N[C@@H](CCCC)C(=O)N2CCC[C@H]2C(=O)N[C@@H](Cc2ccc(Cl)cc2)C(=O)O)C[C@@H]2CCCC[C@@H]21
B4: Apelin polypeptide SEQ ID NO: 475 (peptide)
peptide: Tridecanoyl-[γGlu][AEEA][AEEA]QEP[NMeR]LSHKGP[Nle]P[Phe(4-Cl)]-OH
SMILES: CCCCCCCCCCCCC(=O)N[C@@H](CCC(=O)NCCOCCOCC(=O)NCCOCCOCC(=O)N[C@@H](CCC(N)=O)C(=O)N[C@@H](CCC(=O)O)C(=O)N1CCC[C@H]1C(=O)N(C)[C@@H](CCCNC(=N)N)C(=O)N[C@@H](CC(C)C)C(=O)N[C@@H](CO)C(=O)N[C@@H](Cc1c[nH]cn1)C(=O)N[C@@H](CCCCN)C(=O)NCC(=O)N1CCC[C@H]1C(=O)N[C@@H](CCCC)C(=O)N1CCC[C@H]1C(=O)N[C@@H](Cc1ccc(Cl)cc1)C(=O)O)C(=O)O
B5: Apelin polypeptide SEQ ID NO: 433 (peptide)
peptide: Tridecanoyl-[γGlu][AEEA][AEEA][dQ][hArg]P[dR][Tle]SHKG[Oic][Nle]P[Phe(4-Cl)]-OH
SMILES: CCCCCCCCCCCCC(=O)N[C@@H](CCC(=O)NCCOCCOCC(=O)NCCOCCOCC(=O)N[C@H](CCC(N)=O)C(=O)N[C@@H](CCCCNC(=N)N)C(=O)N1CCC[C@H]1C(=O)N[C@H](CCCNC(=N)N)C(=O)N[C@H](C(=O)N[C@@H](CO)C(=O)N[C@@H](Cc1c[nH]cn1)C(=O)N[C@@H](CCCCN)C(=O)NCC(=O)N1[C@H](C(=O)N[C@@H](CCCC)C(=O)N2CCC[C@H]2C(=O)N[C@@H](Cc2ccc(Cl)cc2)C(=O)O)C[C@@H]2CCCC[C@@H]21)C(C)(C)C)C(=O)O

How the values were obtained:
rat APJ receptor = target: T1, rat APJ receptor (rat, UniProt Q9JHG3 1-377); test: cell-based or functional assay
T1 sequence (looked up): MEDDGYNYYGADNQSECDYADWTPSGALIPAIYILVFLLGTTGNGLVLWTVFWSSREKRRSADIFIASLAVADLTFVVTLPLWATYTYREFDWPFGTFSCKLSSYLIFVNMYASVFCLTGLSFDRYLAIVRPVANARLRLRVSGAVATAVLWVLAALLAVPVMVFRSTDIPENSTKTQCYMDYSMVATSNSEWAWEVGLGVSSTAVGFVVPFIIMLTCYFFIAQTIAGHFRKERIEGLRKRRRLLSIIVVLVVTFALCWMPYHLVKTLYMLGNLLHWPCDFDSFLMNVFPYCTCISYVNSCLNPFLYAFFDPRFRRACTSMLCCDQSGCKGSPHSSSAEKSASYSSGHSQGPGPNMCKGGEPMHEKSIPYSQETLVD

human APJ receptor = target: T2, human APJ receptor (human, UniProt P35414 1-380); test: cell-based or functional assay
T2 sequence (looked up): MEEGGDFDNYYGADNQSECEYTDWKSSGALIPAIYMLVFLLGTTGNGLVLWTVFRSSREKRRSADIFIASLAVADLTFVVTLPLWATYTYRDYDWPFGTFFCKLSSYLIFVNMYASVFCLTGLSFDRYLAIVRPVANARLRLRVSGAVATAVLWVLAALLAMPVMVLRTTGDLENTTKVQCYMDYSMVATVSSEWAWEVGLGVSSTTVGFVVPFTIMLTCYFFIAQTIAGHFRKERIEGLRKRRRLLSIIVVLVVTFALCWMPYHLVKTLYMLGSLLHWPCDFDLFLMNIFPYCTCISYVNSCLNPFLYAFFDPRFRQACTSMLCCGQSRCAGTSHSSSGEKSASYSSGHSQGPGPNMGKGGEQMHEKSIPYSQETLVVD

Binder	EC50 Rat APJ Receptor (GTPγS assay) (rat APJ receptor)	EC50 Human APJ Receptor (GTPγS assay) (human APJ receptor)
B1	243 nM	158 nM
B2	346 nM	53.2 nM
B3	16.5 nM	6.36 nM
B4	35.9 nM	10.3 nM
B5	19.8 nM	12.8 nM
